Where a chain is given by its changes, count along the chain named.
T1: human BCMA on NCI-H929 tumor cells (human, UniProt Q02223 1-184)
T1 sequence (looked up): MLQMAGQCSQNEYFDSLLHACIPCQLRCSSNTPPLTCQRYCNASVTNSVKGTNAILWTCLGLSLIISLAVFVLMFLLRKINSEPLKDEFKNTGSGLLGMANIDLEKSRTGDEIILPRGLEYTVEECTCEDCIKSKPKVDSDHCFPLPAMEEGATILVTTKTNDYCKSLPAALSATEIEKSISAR

B1: humanized anti-BCMA antibody Ab2 (antibody, human IgG1, kappa, V domains shown)
VH: QVQLVQSGAEVKKPGASVKVSCKASGYSFSDYEMHWVRQAPGQGLEWIGGIHPGSGGSAYNQKFKGRVTLTVDKSTSTAYMELSSLRSEDTAVYYCTRLDYGYSWAWFPYWGQGTLVTVSA
VL: EIVLTQSPATLSLSPGERATLSCSASSSVIYMNWYQQKPGQSPKIWIYGISNLASGVPARFSGSGSGTDFTLTISSLEPEDFAVYYCQQRSSYPLTFGGGTKVEIKR
B2: humanized anti-BCMA antibody Ab1 (antibody, human IgG1, kappa, V domains shown)
VH: B1 VH with I48M, L70M, V72R, K74T, A79V
VL: B1 VL with S42A, K44R, I45L, W46L, V57I
B3: humanized anti-BCMA antibody Ab3 (antibody, human IgG1, kappa, V domains shown)
VH: B1 VH with R67K, V68A
VL: B1 VL with V3L, S22T, Q41S, D69S

Target: T1, human BCMA on NCI-H929 tumor cells
Assay: cell-based or functional assay

| Endocytosis efficiency % (0.5 hour) [%] | Endocytosis efficiency % (2 hours) [%] | Binder |
| --- | --- | --- |
| 36.7 | 48 | B1 |
| 36.6 | 49.5 | B2 |
| 35.5 | 45.7 | B3 |
